Assay [1] concerns the target human Notch1 (on NIH-3T3 cells) (human, UniProt P46531 19-2555). Kind of assay: cell-based or functional assay.
The target of assay [2] is T1, human Notch2 NRR (human, UniProt Q04721 1425-1677).
T1 construct: domain: NRR; Construct not described; also called human NRR2
T1 sequence (looked up): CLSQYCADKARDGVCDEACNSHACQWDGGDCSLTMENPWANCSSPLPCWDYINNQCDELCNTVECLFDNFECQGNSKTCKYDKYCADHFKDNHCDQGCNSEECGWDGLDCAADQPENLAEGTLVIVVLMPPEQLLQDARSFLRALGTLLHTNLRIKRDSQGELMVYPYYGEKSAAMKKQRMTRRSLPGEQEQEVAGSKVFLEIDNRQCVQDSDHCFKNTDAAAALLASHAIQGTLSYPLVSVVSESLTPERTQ
Kind of assay: cross-reactivity test of the IgG (method not detailed).

The target of assay [3] is T2, murine Notch2 NRR (mouse, UniProt O35516 1425-1679).
T2 construct: domain: NRR; Construct not described; also called mouse NRR2
T2 sequence (looked up): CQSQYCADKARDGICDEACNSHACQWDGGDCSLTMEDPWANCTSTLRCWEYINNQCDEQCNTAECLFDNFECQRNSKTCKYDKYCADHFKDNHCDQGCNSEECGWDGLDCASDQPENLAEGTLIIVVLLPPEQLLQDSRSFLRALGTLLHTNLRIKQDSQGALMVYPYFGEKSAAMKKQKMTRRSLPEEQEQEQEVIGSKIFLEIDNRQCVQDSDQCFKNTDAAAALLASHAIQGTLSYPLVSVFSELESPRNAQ
The assay is described as above.

The target of assay [4] is T3, human Notch3 NRR (human, UniProt Q9UM47 1378-1643, limits assumed).
T3 construct: domain: NRR; Construct not described; also called human NRR3
Described as above.

Assay [5] deals with T4, murine Notch3 NRR (mouse, UniProt Q61982 1379-1643, limits assumed).
T4 construct: domain: NRR; Construct not described; also called mouse NRR3
The description is as above.

In assay [6] the target is T5, human Notch4 NRR (human, UniProt Q99466 1172-1447, limits assumed).
T5 construct: domain: NRR; Construct not described; also called human NRR4
T5 sequence (looked up): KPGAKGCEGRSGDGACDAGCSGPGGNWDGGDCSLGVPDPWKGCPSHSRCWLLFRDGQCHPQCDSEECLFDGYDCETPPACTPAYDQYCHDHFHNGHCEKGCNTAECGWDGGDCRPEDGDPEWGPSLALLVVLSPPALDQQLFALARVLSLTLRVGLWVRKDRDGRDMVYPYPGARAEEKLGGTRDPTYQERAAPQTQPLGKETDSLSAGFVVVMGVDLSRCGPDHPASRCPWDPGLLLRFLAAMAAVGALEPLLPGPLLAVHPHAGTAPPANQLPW
Described as above.

Assay [7] deals with T6, murine Notch4 NRR (mouse, UniProt P31695 1168-1443, limits assumed).
T6 construct: domain: NRR; Construct not described; also called mouse NRR4
T6 sequence (looked up): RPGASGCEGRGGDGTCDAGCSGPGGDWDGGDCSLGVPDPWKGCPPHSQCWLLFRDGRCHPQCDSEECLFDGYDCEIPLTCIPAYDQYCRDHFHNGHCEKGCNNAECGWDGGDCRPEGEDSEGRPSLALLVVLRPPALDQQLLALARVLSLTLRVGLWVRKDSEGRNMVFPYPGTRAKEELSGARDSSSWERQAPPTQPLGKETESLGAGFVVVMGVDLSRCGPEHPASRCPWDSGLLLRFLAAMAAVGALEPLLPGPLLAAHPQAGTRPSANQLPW
The description is as above.

In assay [8] the target is T7, hFLAG-EGF34+NRR-His6 (101V), the human Notch1 NRR immunogen (Notch1 V1307-Q1733) (human, UniProt P46531 1307-1733).
T7 construct: also called hNotch1 NRR; human NRR1
Nature of the assay: SPR (BIAcore-3000), IgG captured by anti-human IgG, NRR1-ECD injected 3.9-500 nM, 25 C. Here is the method:
(§1) To further characterize the binding affinity and binding kinetics of the anti-Notch1 NRR Mabs, surface plasmon resonance (SRP) measurement with a BIAcore™-3000 was used (BIAcore, Inc., Piscataway, N.J.). Briefly, carboxymethylated dextran biosensor chips (CM5, BIAcore Inc.) were activated with N-ethyl-N′-(3-dimethylaminopropyl)-carbodiimide hydrochloride (EDC) and N-hydroxysuccinimide (NHS) according to the supplier's instructions. Rabbit anti human antibody (Pierce) was diluted with 100 mM sodium acetate, pH 4.8, into 20 μg/ml before injection at a flow rate of 5 μl/minute to achieve approximately 3000 response units (RU) of coupled antibody. Next, 1M ethanolamine was injected to block unreacted groups. Anti-NRR1 mab (formatted as a full-length IgG) was captured by rabbit anti-human IgG coated on the chips to achieve approximately 200 response units (RU). For kinetics measurements, two-fold serial dilutions of human NRR1-ECD or murine NRR1-ECD proteins (3.9 nM to 500 nM) were injected in PBT buffer (PBS with 0.05% Tween 20) at 25° C. with a flow rate of 30 μl/min. Association rates (kₒₙ) and dissociation rates (koff) were calculated using a simple one-to-one Langmuir binding model (BIAcore Evaluation Software version 3.2). The equilibrium dissociation constant (KD) was calculated as the ratio koff/kₒₙ.

Assay [9] addresses T8, mFLAG-EGF34+NRR-His6, the mouse Notch1 NRR immunogen (Notch1 V1307-Q1723) (mouse, UniProt Q01705 1307-1723).
T8 construct: the rest carries an N-terminal FLAG tag and a C-terminal His tag; also called mNotch1 NRR; murine NRR1
The assay is described as above. How it is done: as §1

The target in assay [10] is mEGF34+NRR-L1597H-FLAG-TEV-Fc (mouse) (UniProt Q01705). Nature of the assay: ELISA, target coated on the plate at 1 ug/ml, IgG titrated in 3-fold steps, detected with peroxidase anti-human Fab; A630.
Assay [11] concerns the target T7, hFLAG-EGF34+NRR-His6 (101V), the human …. Described as above. Here is the method:
(§2) 1 μg/ml of proteins in PBS, pH 7.4, were coated on ELISA plates (Nunc Maxisorp) at 4° C. overnight. Plates were blocked with Casein blocker in PBS (phosphate buffered saline; Pierce) for one hour at room temperature. Serial 3-fold dilutions of anti Notch1 NRR IgGs or irrelevant IgG in PBST buffer (PBT buffer (PBS+0.05% (v/v) Tween 20) with 0.5% (w/v) BSA) were added to the plates and incubated for one hour at room temperature. The plates were then washed with PBST and bound antibodies were detected with peroxidase-conjugated goat anti human Fab specific IgG (Sigma). TMB substrate (3,3′,5,5′-etramethylbenzidine) was used and absorbance at 650 nm was read using a standard ELISA plate reader. Absorbance was plotted against concentrations of IgGs using KaleidaGraph (Synergy Software).

The target of assay [12] is T8, mFLAG-EGF34+NRR-His6, the mouse Notch1 …. The description is as above. Here is the method:
as §2

For assay [13], the target named is T9, hFLAG-NRR-His6 (102V) (human, UniProt P46531 1447-1733).
T9 construct: no EGF-like repeats; not shown: FLAG tag; thrombin cleavage site and HIS tag
Described as above. How it is done: as §2

The values that follow come from patent US20090081238A1 (Genentech, published 2009).

T8 sequence (Q01705 other isoform, or with tags, fused parts or gaps): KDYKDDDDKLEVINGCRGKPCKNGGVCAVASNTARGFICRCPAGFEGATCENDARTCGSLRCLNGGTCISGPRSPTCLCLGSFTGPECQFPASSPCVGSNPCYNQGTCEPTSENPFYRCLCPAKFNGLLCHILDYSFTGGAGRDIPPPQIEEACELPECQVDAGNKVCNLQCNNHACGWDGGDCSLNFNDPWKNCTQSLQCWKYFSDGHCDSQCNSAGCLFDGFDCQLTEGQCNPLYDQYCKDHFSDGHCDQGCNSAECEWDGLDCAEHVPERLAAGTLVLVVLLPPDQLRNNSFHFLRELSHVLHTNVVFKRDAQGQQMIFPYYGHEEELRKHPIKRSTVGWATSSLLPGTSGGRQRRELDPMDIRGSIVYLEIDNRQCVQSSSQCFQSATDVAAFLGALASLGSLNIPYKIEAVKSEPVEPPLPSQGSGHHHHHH
T4 sequence (Q61982 1379-1643 limits assumed): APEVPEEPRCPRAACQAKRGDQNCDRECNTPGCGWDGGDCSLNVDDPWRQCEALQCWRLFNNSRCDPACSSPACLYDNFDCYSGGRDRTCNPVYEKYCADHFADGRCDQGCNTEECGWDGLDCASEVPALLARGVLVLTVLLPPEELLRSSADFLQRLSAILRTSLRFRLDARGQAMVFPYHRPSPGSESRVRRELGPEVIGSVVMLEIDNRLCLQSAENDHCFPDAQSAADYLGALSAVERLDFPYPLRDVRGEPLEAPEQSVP
Chain of mEGF34+NRR-L1597H-FLAG-TEV-Fc (mouse) (Q01705 1307-1723, stated change not applied): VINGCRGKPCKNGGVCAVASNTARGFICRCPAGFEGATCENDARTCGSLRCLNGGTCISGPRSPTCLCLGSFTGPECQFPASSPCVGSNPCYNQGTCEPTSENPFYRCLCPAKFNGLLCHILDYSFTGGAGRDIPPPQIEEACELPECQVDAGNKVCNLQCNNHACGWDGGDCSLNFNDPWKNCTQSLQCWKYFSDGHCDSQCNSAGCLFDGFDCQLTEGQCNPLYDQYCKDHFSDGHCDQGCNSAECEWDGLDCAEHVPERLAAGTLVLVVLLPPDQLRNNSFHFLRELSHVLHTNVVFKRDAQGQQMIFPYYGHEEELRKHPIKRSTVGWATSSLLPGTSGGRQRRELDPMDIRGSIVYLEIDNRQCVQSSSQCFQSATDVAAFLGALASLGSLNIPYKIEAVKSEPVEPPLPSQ
T3 sequence (Q9UM47 1378-1643 limits assumed): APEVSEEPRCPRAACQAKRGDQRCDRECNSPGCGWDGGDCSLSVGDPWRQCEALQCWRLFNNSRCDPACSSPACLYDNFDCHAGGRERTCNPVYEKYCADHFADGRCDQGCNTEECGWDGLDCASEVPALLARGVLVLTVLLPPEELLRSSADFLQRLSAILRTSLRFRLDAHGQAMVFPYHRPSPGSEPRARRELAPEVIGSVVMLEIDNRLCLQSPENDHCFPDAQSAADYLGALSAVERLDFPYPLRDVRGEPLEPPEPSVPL

B1: Antibody A (antibody, V domains shown)
VH: EVQLVESGGGLVQPGGSLRLSCAASGFTFSSYWIHWVRQAPGKGLEWVARINPSNGSTNYADSVKGRFTISADTSKNTAYLQMNSLRAEDTAVYYCARGSGFRWVMDYWGQGTLVTVSS
VL: DIQMTQSPSSLSASVGDRVTITCRASQDVSTAVAWYQQKPDGTVKLLIYSASFLYSGVPSRFSGSGSGTDFTLTISSLQPEDFATYYCQQSYTTPPTFGQGTKVEIKR
notes: Tested as full-length human IgG1 (hIgG1) made in CHO cells; also called anti-Notch1 NRR Antibody A; Antibody A-hIgG1
By Kd is commonly meant a measure of binding affinity in units of concentration. Low readings indicate a tighter complex, high ones a looser complex. In general, koff refers to a measure of how fast the partners let go of each other. Lower therefore signals a long-lived complex. A word on the kon: it is a measure of how fast the partners come together. A higher kon goes with fast association. In general, EC50 (read off the curve) refers to the concentration that produces a half-maximal response. Take B1: the “Co-culture blocking, IC50” value in [1] was about 0.1 µg/mL. The binding result in assay [2], in [3], in [4], in assay [5], in assay [6] and in [7] was “no binding” in each case. Further, the figures for the Kd in [8] and in assay [9] were 134 nM and 231 nM, respectively. For the same molecule, the koff is 0.011 s⁻¹ in assay [8] and 0.021 s⁻¹ in assay [9]. In addition, the kon came to 82000 M⁻¹ s⁻¹ in [8] and 91000 M⁻¹ s⁻¹ in [9]. In addition, the EC50 (read off the curve) in assay [10] is 0.04 µg/mL; in assay [11] it was about 0.07 µg/mL; in assay [12], about 0.05 µg/mL; in assay [13], about 0.07 µg/mL.
